Reference: article PMC5824709, “Metabolite profiling with HPLC-ICP-MS as a tool for in vivo characterization of imaging probes” (EJNMMI Radiopharmacy and Chemistry, 2018)
Where a SMILES comes first, the peptide text is derived from it. Bridges are numbered along the chain shown (N, C = ends). [ ]: non-standard residue; d: D form. The star is where a group is joined. DOTA(p-xylylenediamine) = O=C(O)CN1CCN(CC(=O)O)CCN(CC(=O)NCc2ccc(CN*)cc2)CCN(CC(=O)O)CC1; DOTA = O=C(O)CN1CCN(CC(=O)O)CCN(CC(=O)*)CCN(CC(=O)O)CC1; Tyr(3-Cl) = N[C@@H](Cc1ccc(O)c(Cl)c1)C(=O)O; Hyp = O=C(O)[C@@H]1C[C@@H](O)CN1

Tests used:
[1] = Size exclusion chromatography HPLC-ICP-MS of plasma samples to detect transchelation to plasma proteins; type: in vivo; details: rats, i.v., SEC HPLC-ICP-MS (BioSep-SEC-s2000, TBS), compared with pure Ga-/In-transferrin standard
Experimental: Ga and In transferrin complexes were synthesized using a 1.3 equivalent excess of protein and purification with Zeba™ Spin Desalting Columns (ThermoFisher Scientific), to remove unchelated Ga and In. TBS buffer was prepared by mixing 150 mM NaCl, 50 mM Tris and 5 mM NaHCO3 followed by stirring over chelex overnight and subsequent filtration.
An Agilent 8800 ICP-MSMS interfaced to an Agilent 1260 HPLC was used. 20% option gas (20% O2, 80% Ar) was added to pyrolyze any carbon deposits on the cones from the HPLC mobile phase while 40% O2 was used as cell gas when conducting reverse phase analysis. HPLC method 3: C18 column (Kromasil 5 μm C18, 250 × 4.60 mm), 0.8 mL/min, mobile phase A (water, 10 mM NaOAc), mobile phase B (90% acetonitrile, 10% 10 mM NaOAc), gradient: min. 0–2: 5% B; min 12: 50% B; min 13: 95% B; min 15: 95% B; min 16: 5% B; min 18: 5% B. HPLC method 4: size exclusion chromatography (SEC) Column (Phenomenex BioSep-SEC-s2000, 300 × 7.80 mm), 1 mL/min, mobile phase TBS, isocratic, 18 min. […] Ga(DOTA) and In(DOTA) were used to determine the limit of detection and limit of quantification, and to generate a calibration curve for quantification using RP-separation. […] 100 μL of each standard was analyzed by direct injection onto the reverse phase HPLC-ICP-MS (HPLC method 3), and the integrals of each metal-FBP peak were recorded. An aliquot of each calibration standard was then digested 1:1 with nitric acid and incubated overnight at 37 °C before being analyzed for its metal concentration by ICP-MS. These metal concentrations were plotted against the previously recorded integrals to generate the metal-FBP calibration plots (Additional file 1: Figure S1). Limits of detection and quantification were calculated using an established method (MacDougall & Crummett [1980]).
Ga-FBP17, Ga-FBP18, In-FBP15, In-FBP19 (50–150 nmol, with concentrations determined by direct inject ICP-MS) in 0.6 mL sterile PBS were injected either individually or as a mixture of Ga-FBP17/In-FBP15 or Ga-FBP18/In-FBP19 into anesthetized rats via cannulated femoral vein, followed by saline flush. […]

[2] = Plasma pharmacokinetics and metabolite profiling by reverse phase HPLC-ICP-MS after i.v. injection; type: in vivo; details: rats; for metabolic behavior in plasma over time (degradation of intact probe): i.v., plasma 5-60 min post injection, C18 HPLC-ICP-MS chromatograms; for relative amount of metabolites with time post injection: plasma, C18 HPLC-ICP-MS, Ga-FBP18: metabolite group C (shortest retention times), In-FBP19: all metabolites
Experimental: An Agilent 8800 ICP-MSMS interfaced to an Agilent 1260 HPLC was used. 20% option gas (20% O2, 80% Ar) was added to pyrolyze any carbon deposits on the cones from the HPLC mobile phase while 40% O2 was used as cell gas when conducting reverse phase analysis. HPLC method 3: C18 column (Kromasil 5 μm C18, 250 × 4.60 mm), 0.8 mL/min, mobile phase A (water, 10 mM NaOAc), mobile phase B (90% acetonitrile, 10% 10 mM NaOAc), gradient: min. 0–2: 5% B; min 12: 50% B; min 13: 95% B; min 15: 95% B; min 16: 5% B; min 18: 5% B. HPLC method 4: size exclusion chromatography (SEC) Column (Phenomenex BioSep-SEC-s2000, 300 × 7.80 mm), 1 mL/min, mobile phase TBS, isocratic, 18 min. The SEC column was standardized using a protein marker kit (Sigma-Aldrich, P/N: MWGF1000). Ga(DOTA) and In(DOTA) were used to determine the limit of detection and limit of quantification, and to generate a calibration curve for quantification using RP-separation. Calibration standards of Ga(DOTA) and In(DOTA) ranging from 10 nM to 1 μM were prepared by serial dilution from stocks. 100 μL of each standard was analyzed by direct injection onto the reverse phase HPLC-ICP-MS (HPLC method 3), and the integrals of each metal-FBP peak were recorded. An aliquot of each calibration standard was then digested 1:1 with nitric acid and incubated overnight at 37 °C before being analyzed for its metal concentration by ICP-MS. These metal concentrations were plotted against the previously recorded integrals to generate the metal-FBP calibration plots (Additional file 1: Figure S1). Limits of detection and quantification were calculated using an established method (MacDougall & Crummett [1980]).
Ga-FBP17, Ga-FBP18, In-FBP15, In-FBP19 (50–150 nmol, with concentrations determined by direct inject ICP-MS) in 0.6 mL sterile PBS were injected either individually or as a mixture of Ga-FBP17/In-FBP15 or Ga-FBP18/In-FBP19 into anesthetized rats via cannulated femoral vein, followed by saline flush. Blood (0.2 mL) was drawn at time points 5, 10, 15, 30 and 60 min post injection via cannulated femoral artery into heparin-containing tubes. Tubes were centrifuged at 2000 g for 10 min to separate the plasma. Plasma was diluted 1:1 with chelex-treated TBS and 100 μL of sample was injected onto the HPLC-ICP-MSMS, scanning for Ga and In at m/z = 69 and 115, respectively. Peaks were integrated and measured against a standard calibration curve.

Compound	transchelation to transferrin / high molecular weight species in plasma [1]	half-life ([2]; rat, iv, i.v. via femoral vein, 50–150 nmol in PBS, plasma from blood drawn 5, 10, 15, 30, 60 min post injection, intact probe quantified by C18 HPLC-ICP-MS (m/z 69 Ga, 115 In), monoexponential clearance assumed, read-out: calculated half-life of the intact complex) [min]	metabolic behavior in plasma over time (degradation of intact probe) [2]	relative amount of metabolites with time post injection [2]
CC[C@H](C)[C@H](NC(=O)[C@H](Cc1c[nH]cn1)NC(=O)[C@@H]1CSSC[C@H](NC(=O)[C@H](Cc2c[nH]cn2)NC(=O)[C@H](Cc2ccccc2)NC(=O)CN2CCN(CC(=O)O)CCN(CC(=O)O)CCN(CC(=O)O)CC2)C(=O)N2C[C@H](O)C[C@H]2C(=O)N[C@@H](Cc2ccc(O)c(Cl)c2)C(=O)N[C@@H](CC(=O)O)C(=O)N[C@@H](CC(C)C)C(=O)N1)C(=O)N[C@@H](CC(C)C)C(=O)NCc1ccc(CNC(=O)CN2CCN(CC(=O)O)CCN(CC(=O)O)CCN(CC(=O)O)CC2)cc1 [Ga-FBP17] ({DOTA}-FHC[Hyp][Tyr(3-Cl)]DLCHIL-{DOTA(p-xylylenediamine)}; disulfide 3-8)	did not observe Ga-transferrin or other high molecular weight species	9	only minimal degradation over time	–
CC[C@H](C)[C@H](NC(=O)[C@H](Cc1c[nH]c2ccccc12)NC(=O)[C@@H]1CSSC[C@H](NC(=O)[C@@H](CCC(=O)O)NC(=O)[C@H](Cc2c[nH]c3ccccc23)NC(=O)CN2CCN(CC(=O)O)CCN(CC(=O)O)CCN(CC(=O)O)CC2)C(=O)N2C[C@H](O)C[C@H]2C(=O)N[C@@H](Cc2ccc(O)c(Cl)c2)C(=O)NCC(=O)N[C@@H](CC(C)C)C(=O)N1)C(=O)N[C@@H](CCC(N)=O)C(=O)NCc1ccc(CNC(=O)CN2CCN(CC(=O)O)CCN(CC(=O)O)CCN(CC(=O)O)CC2)cc1 [Ga-FBP18] ({DOTA}-W[dE]C[Hyp][Tyr(3-Cl)]GLCWIQ-{DOTA(p-xylylenediamine)}; disulfide 3-8)	identified Ga-transferrin as a metabolite	–	rapid metabolism	increased with time post injection
CC[C@H](C)[C@H](NC(=O)[C@H](Cc1c[nH]cn1)NC(=O)[C@@H]1CSSC[C@H](NC(=O)[C@H](Cc2c[nH]cn2)NC(=O)[C@H](Cc2ccccc2)NC(=O)CN2CCN(CC(=O)O)CCN(CC(=O)O)CCN(CC(=O)O)CC2)C(=O)N2C[C@H](O)C[C@H]2C(=O)N[C@@H](Cc2ccc(O)c(Cl)c2)C(=O)N[C@@H](CC(=O)O)C(=O)N[C@@H](CC(C)C)C(=O)N1)C(=O)N[C@@H](CC(C)C)C(=O)NCc1ccc(CNC(=O)CN2CCN(CC(=O)O)CCN(CC(=O)O)CCN(CC(=O)O)CC2)cc1 [In-FBP15] ({DOTA}-FHC[Hyp][Tyr(3-Cl)]DLCHIL-{DOTA(p-xylylenediamine)}; disulfide 3-8)	–	–	only minimal degradation over time	–
CC[C@H](C)[C@H](NC(=O)[C@H](Cc1c[nH]c2ccccc12)NC(=O)[C@@H]1CSSC[C@H](NC(=O)[C@@H](CCC(=O)O)NC(=O)[C@H](Cc2c[nH]c3ccccc23)NC(=O)CN2CCN(CC(=O)O)CCN(CC(=O)O)CCN(CC(=O)O)CC2)C(=O)N2C[C@H](O)C[C@H]2C(=O)N[C@@H](Cc2ccc(O)c(Cl)c2)C(=O)NCC(=O)N[C@@H](CC(C)C)C(=O)N1)C(=O)N[C@@H](CCC(N)=O)C(=O)NCc1ccc(CNC(=O)CN2CCN(CC(=O)O)CCN(CC(=O)O)CCN(CC(=O)O)CC2)cc1 [In-FBP19] ({DOTA}-W[dE]C[Hyp][Tyr(3-Cl)]GLCWIQ-{DOTA(p-xylylenediamine)}; disulfide 3-8)	did not identify In-transferrin in the plasma samples	–	rapid metabolism	roughly constant with time
